Experimental data as given in FireProtDB (doi:10.1016/j.ijbiomac.2020.03.166).
Where “and” joins values, the source holds several entries; their conditions need not be identical. Equal entries are not always repeated.

Details: Leishmania major, pH 7.5, potassium phosphate, NaCl, transition: 2, whole UniProt chain shown
[1] = GdnHCl, fluorescence emission maxima
[2] = Urea, fluorescence emission maxima

B1: Peptidyl-prolyl cis-trans isomerase wild type, Q4QII4 (protein)
chain: MPTSSWRAEHLLIKHSGSRNPVSRRTGQPTTISYEEAVTELQKWCQSINDGKVTFEEAARQRSDCSSYARGGDLGVFGPGEMMKPFEDATKSLEVGQVSGIVVTDSGVHIIKRIA
denaturant m value (GdnHCl, CD): 3.32 kcal/mol/M
denaturant midpoint (higher = more stable) (GdnHCl, CD): 0.98 M
unfolding free energy (GdnHCl, CD): 3.27 kcal/mol
denaturant m value (GdnHCl, anisotropy): 3.87 kcal/mol/M
denaturant midpoint (higher = more stable) (GdnHCl, anisotropy): 1.16 M
unfolding free energy (GdnHCl, anisotropy): 4.51 kcal/mol
denaturant m value [1]: 4.3 kcal/mol/M
denaturant midpoint (higher = more stable) [1]: 1.1 M
unfolding free energy [1]: 4.74 kcal/mol
denaturant m value (GdnHCl, fluorescence intensity): 4.61 kcal/mol/M
denaturant midpoint (higher = more stable) (GdnHCl, fluorescence intensity): 0.97 M
unfolding free energy (GdnHCl, fluorescence intensity): 4.48 kcal/mol
unfolding enthalpy (calorimetric) (Thermal, DSC): 36.6 kcal/mol and 55.1 kcal/mol
denaturant m value (Urea, CD): 1.38 kcal/mol/M
denaturant midpoint (higher = more stable) (Urea, CD): 4.12 M
unfolding free energy (Urea, CD): 5.69 kcal/mol
denaturant m value (Urea, anisotropy): 1.2 kcal/mol/M
denaturant midpoint (higher = more stable) (Urea, anisotropy): 4.15 M
unfolding free energy (Urea, anisotropy): 4.99 kcal/mol
denaturant m value [2]: 1.28 kcal/mol/M
denaturant midpoint (higher = more stable) [2]: 4.78 M
unfolding free energy [2]: 5.12 kcal/mol
denaturant m value (Urea, fluorescence intensity): 1.39 kcal/mol/M
denaturant midpoint (higher = more stable) (Urea, fluorescence intensity): 3.53 M
unfolding free energy (Urea, fluorescence intensity): 4.91 kcal/mol
